One block for each binder: values may come before it.
Target: T1, myc-WT CARD11-FLAGx2 (murine, UniProt Q8CIS0 1-1159)
T1 sequence (looked up): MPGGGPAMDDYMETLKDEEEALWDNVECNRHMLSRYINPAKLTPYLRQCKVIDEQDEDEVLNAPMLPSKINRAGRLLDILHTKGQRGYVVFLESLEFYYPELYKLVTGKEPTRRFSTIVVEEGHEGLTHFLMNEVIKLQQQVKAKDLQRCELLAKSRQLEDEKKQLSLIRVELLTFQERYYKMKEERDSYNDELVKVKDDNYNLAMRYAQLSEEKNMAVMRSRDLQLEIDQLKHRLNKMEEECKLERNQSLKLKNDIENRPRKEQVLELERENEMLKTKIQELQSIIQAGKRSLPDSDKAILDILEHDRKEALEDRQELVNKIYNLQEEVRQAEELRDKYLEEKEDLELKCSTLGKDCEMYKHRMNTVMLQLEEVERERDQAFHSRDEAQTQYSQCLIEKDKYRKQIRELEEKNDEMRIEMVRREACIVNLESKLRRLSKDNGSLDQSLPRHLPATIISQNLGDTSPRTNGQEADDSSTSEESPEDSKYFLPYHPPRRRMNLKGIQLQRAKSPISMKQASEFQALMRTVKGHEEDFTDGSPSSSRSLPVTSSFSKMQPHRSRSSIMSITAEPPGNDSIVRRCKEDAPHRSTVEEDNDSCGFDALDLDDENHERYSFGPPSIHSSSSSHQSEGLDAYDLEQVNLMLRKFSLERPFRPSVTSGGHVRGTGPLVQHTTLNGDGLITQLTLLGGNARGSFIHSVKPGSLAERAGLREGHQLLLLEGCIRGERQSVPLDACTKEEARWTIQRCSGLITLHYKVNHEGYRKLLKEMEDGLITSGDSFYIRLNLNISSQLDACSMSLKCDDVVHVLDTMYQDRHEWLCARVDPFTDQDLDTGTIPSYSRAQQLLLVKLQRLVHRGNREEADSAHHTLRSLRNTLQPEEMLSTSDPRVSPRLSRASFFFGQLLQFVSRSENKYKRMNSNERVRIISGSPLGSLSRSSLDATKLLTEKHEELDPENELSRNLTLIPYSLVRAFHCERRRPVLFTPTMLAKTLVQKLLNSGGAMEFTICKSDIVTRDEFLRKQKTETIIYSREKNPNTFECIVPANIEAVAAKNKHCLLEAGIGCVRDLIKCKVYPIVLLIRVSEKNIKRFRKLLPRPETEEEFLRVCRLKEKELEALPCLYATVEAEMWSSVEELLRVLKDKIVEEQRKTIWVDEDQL
Assay: co-IP

relative inducible binding (bound/input, normalised to WT): 1 relative to WT
B1: HOIP (endogenous, Jurkat T cells) (natural protein, human (endogenous in Jurkat), UniProt Q96EP0 1-1072, looked up)
chain: MPGEEEERAFLVAREELASALRRDSGQAFSLEQLRPLLASSLPLAARYLQLDAARLVRCNAHGEPRNYLNTLSTALNILEKYGRNLLSPQRPRYWRGVKFNNPVFRSTVDAVQGGRDVLRLYGYTEEQPDGLSFPEGQEEPDEHQVATVTLEVLLLRTELSLLLQNTHPRQQALEQLLEDKVEDDMLQLSEFDPLLREIAPGPLTTPSVPGSTPGPCFLCGSAPGTLHCPSCKQALCPACDHLFHGHPSRAHHLRQTLPGVLQGTHLSPSLPASAQPRPQSTSLLALGDSSLSSPNPASAHLPWHCAACAMLNEPWAVLCVACDRPRGCKGLGLGTEGPQGTGGLEPDLARGRWACQSCTFENEAAAVLCSICERPRLAQPPSLVVDSRDAGICLQPLQQGDALLASAQSQVWYCIHCTFCNSSPGWVCVMCNRTSSPIPAQHAPRPYASSLEKGPPKPGPPRRLSAPLPSSCGDPEKQRQDKMREEGLQLVSMIREGEAAGACPEEIFSALQYSGTEVPLQWLRSELPYVLEMVAELAGQQDPGLGAFSCQEARRAWLDRHGNLDEAVEECVRTRRRKVQELQSLGFGPEEGSLQALFQHGGDVSRALTELQRQRLEPFRQRLWDSGPEPTPSWDGPDKQSLVRRLLAVYALPSWGRAELALSLLQETPRNYELGDVVEAVRHSQDRAFLRRLLAQECAVCGWALPHNRMQALTSCECTICPDCFRQHFTIALKEKHITDMVCPACGRPDLTDDTQLLSYFSTLDIQLRESLEPDAYALFHKKLTEGVLMRDPKFLWCAQCSFGFIYEREQLEATCPQCHQTFCVRCKRQWEEQHRGRSCEDFQNWKRMNDPEYQAQGLAMYLQENGIDCPKCKFSYALARGGCMHFHCTQCRHQFCSGCYNAFYAKNKCPEPNCRVKKSLHGHHPRDCLFYLRDWTALRLQKLLQDNNVMFNTEPPAGARAVPGGGCRVIEQKEVPNGLRDEACGKETPAGYAGLCQAHYKEYLVSLINAHSLDPATLYEVEELETATERYLHVRPQPLAGEDPPAYQARLLQKLTEEVPLGQSIPRRRK

relative inducible binding (bound/input, normalised to WT): 1 relative to WT
B2: Bcl10 (endogenous, Jurkat T cells) (natural protein, human (endogenous in Jurkat), UniProt O95999 1-233, looked up)
chain: MEPTAPSLTEEDLTEVKKDALENLRVYLCEKIIAERHFDHLRAKKILSREDTEEISCRTSSRKRAGKLLDYLQENPKGLDTLVESIRREKTQNFLIQKITDEVLKLRNIKLEHLKGLKCSSCEPFPDGATNNLSRSNSDESNFSEKLRASTVMYHPEGESSTTPFFSTNSSLNLPVLEVGRTENTIFSSTTLPRPGDPGAPPLPPDLQLEEEGTCANSSEMFLPLRSRTVSRQ
